Patent US20200347130A1 (JIANGSU HENGRUI MEDICINE, published 2020)
One block for each binder: values may come before it.

Legend:
[1] = biological target: T1, CD96 epitope peptide #8 (122-141) (human); assay: peptide ELISA, peptide coated
T1 peptide: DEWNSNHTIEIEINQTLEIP
Procedure: (§1) The epitopes recognized by anti-CD96 antibody were detected by the assay of binding the antibody to different polypeptide fragments of CD96 protein. The fragments of different polypeptides of the CD96 antigen were coated on the microtiter plate. The signal density after the antibody was added was used to judge the binding activity of the antibody and the polypeptide. The specific experimental method is as follows:
(§2) The polypeptides were diluted to a concentration of 20 μg/ml with PBS buffer (Shanghai Yuanpei Biotechnology Co., Ltd. Cat No. B320), pH 7.4, added to a 96-well microtiter plate (Corning, Cat No. CLS3590-100EA) at a volume of 50 μl/well, and coated at 4° C. overnight. After discarding the liquid, 250 μl/well of 5% skim milk (BD skim milk, Cat No. 232100) blocking solution diluted with PBS was added, and the plate was incubated in an incubator at 37° C. for 3 hours. After blocking, the blocking solution was discarded, and the plate was washed 5 times with PBST buffer (pH 7.4 PBS containing 0.05% tween-20). 50 μl/well of different concentrations of the antibodies to be tested (hybridoma purification antibody or humanized antibody) diluted with sample dilution was added, and the plate was incubated in an incubator at 37° C. for 2 hours. […] After washing the plate 5 times with PBST, 50 μl/well of TMB chromogenic substrate (KPL, Cat No. 52-00-03) was added, the plate was incubated at room temperature for 5-15 min, followed by adding 50 μl/well of 1M H₂SO₄ to stop the reaction. The absorption value was read at 450 nm with a microplate reader (Thermo Scientific MuLtiskan MK3), and the epitopes that CD96 antibody can recognize were analyzed.

[2] = biological target: T2, CD96 epitope peptide #22 (325-344) (human); assay: peptide ELISA, peptide coated
T2 peptide: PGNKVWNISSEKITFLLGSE
Procedure: as §1, §2

[3] = biological target: T3, CD96 epitope peptide #11 (166-185) (human); assay: peptide ELISA, peptide coated
T3 peptide: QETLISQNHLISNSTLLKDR
Procedure: as §1, §2

[4] = biological target: T4, CD96 epitope peptide #20 (295-314) (human); assay: peptide ELISA, peptide coated
T4 peptide: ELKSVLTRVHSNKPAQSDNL
Procedure: as §1, §2

[5] = biological target: T5, CD96 epitope peptide #10 (149-170) (human); assay: peptide ELISA, peptide coated
T5 peptide: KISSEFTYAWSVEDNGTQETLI
Procedure: as §1, §2

[6] = biological target: T6, CD96 epitope peptide #18 (265-284) (human); assay: peptide ELISA, peptide coated
T6 peptide: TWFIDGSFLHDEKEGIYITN
Procedure: as §1, §2

[7] = biological target: T7, CD96 epitope peptide #19 (280-299) (human); assay: peptide ELISA, peptide coated
T7 peptide: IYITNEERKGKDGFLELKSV
Procedure: as §1, §2

[8] = biological target: T8, CD96 epitope peptide #4 (62-81) (human); assay: peptide ELISA, peptide coated
T8 peptide: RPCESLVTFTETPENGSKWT
Procedure: as §1, §2

[9] = biological target: T9, CD96 epitope peptide #13 (196-215) (human); assay: peptide ELISA, peptide coated
T9 peptide: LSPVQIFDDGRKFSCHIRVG
Procedure: as §1, §2

[10] = biological target: T10, CD96 epitope peptide #16 (235-254) (human); assay: peptide ELISA, peptide coated
T10 peptide: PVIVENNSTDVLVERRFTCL
Procedure: as §1, §2

[11] = biological target: T11, CD96 extracellular region with His tag (CD96-His) (human, UniProt P40200 22-519); assay: blocking cell ELISA: antibody pre-mixed with Bio-CD96-His, added to fixed CD155-CHO cells, HRP-streptavidin, OD450; blocked ligand: human CD155 on CHO cells
T11 construct: also called CD96-ECD-His; Bio-CD96-His (biotin-labelled form)
T11 sequence: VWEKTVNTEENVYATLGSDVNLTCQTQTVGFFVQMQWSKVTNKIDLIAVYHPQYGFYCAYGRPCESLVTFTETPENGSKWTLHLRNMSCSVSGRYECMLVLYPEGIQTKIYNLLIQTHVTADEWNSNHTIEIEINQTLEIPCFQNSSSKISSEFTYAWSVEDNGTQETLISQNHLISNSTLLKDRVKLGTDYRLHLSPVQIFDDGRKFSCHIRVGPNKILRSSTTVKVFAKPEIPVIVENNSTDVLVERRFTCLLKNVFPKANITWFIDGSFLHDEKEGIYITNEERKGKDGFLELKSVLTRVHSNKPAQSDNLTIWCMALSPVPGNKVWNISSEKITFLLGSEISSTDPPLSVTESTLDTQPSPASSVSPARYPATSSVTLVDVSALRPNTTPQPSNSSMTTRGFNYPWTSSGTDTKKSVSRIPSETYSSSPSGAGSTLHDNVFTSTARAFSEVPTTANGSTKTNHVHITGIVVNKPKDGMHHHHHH
Procedure: CD155-CHO cells (constructed by Shanghai Hengrui) were seeded in 96-well culture plates at a density of 9×10⁴/100 μL/well and cultured overnight. After aspirating the supernatant, the plate was washed once with PBS, 100 μl/well of immunostaining fixation solution (Biyuntian, Cat No. P0098) was added and fixed for one hour at room temperature, and the plate was washed three times with PBS. After discarding the liquid, 250 μl/well of 5% skim milk (BD, Cat No. 232100) blocking solution diluted with PBS was added, and the plate was blocked in an incubator at 37° C. for 2.5 hours. After blocking, the blocking solution was discarded, subsequently, the plate was washed 4 times with PBST buffer (pH 7.4 PBS containing 0.05% tween-20). […] The absorption value was read at 450 nm with a NOVOStar microplate reader, and the EC50 value of the effect of CD96 antibody on blocking the binding between the antigens and CD155-CHO cells was calculated (see FIG. 2 and Table 16).

binding result [1]: binds
binding result [2]: binds
binding result [3]: binds
binding result [4]: binds
binding result [5]: binds
binding result [6]: binds
binding result [7]: binds
binding result [8]: binds
binding result [9]: binds
binding result [10]: binds
B1: ch1718 (antibody, human IgG4 S228P, kappa, V domains shown)
VH: EFQLQQSGPELVKPGASVKISCKASAYSITDYNMNWVKQSNGKSLEWIGVINPSYGITDYNQNFKDKATLTVDQSSSTAYMQLNSLTSEDSAVYYCAIQLRLPGYFDVWGTGTTVIVSS
VL: DIKMTQSPSSMYASLGERVTITCKASQDINNYLNWFQQKPGKSPKTLIYRANRLVDGVPSRFSGSGSGQDYSLTISSLEYEDMGIYYCLKYDEFPYTFGGGTKVEIKR
notes: also called chimeric antibody corresponding to m1718

IC50 (read off the curve) [11]: ~0.6 nM
B2: h1719-010 (antibody, V domains shown)
VH: EVTLKESGPVLVKPTETLTLTCTVSGFSLSSYGVSWVRQPPGKGLEWLGVIWGDGNTNYHSVLISRLTISKDTSKSQVVLTLTNMDPVDTATYYCAKQNYYGSRYGYPIDYWGQGTTVTVSS
VL: DIQMTQSPSSVSASVGDRVTITCKATQDVGTAVAWYQQKPGKAPKLLIYWASTRHTGVPSRFSGSGSGTDFTLTISSLQPEDFATYYCQQYGSSVLTFGGGTKVEIK
notes: Only variable regions are tied to this name
